Tests used:
[1] = target: T1, C-terminally HA-tagged mouse ITM2A expressed on CHO cells (mITM2A_CHO) (mouse, UniProt Q61500 1-263); experiment: flow cytometry on mITM2A_CHO cells
T1 construct: also called mITM2A-HA; mouse ITM2A-expressing CHO cells

[2] = target: T2, GST-ITM2A-L (GST fusion of the ITM2A extracellular region Tyr75-Glu263, C-terminally His-tagged) (human); experiment: ELISA, coated GST-ITM2A-L
T2 construct: Expressed in E. coli, solubilized and purified in 8 M urea buffer, coated on the ELISA plate
T2 sequence (chain, as listed by the source limits assumed): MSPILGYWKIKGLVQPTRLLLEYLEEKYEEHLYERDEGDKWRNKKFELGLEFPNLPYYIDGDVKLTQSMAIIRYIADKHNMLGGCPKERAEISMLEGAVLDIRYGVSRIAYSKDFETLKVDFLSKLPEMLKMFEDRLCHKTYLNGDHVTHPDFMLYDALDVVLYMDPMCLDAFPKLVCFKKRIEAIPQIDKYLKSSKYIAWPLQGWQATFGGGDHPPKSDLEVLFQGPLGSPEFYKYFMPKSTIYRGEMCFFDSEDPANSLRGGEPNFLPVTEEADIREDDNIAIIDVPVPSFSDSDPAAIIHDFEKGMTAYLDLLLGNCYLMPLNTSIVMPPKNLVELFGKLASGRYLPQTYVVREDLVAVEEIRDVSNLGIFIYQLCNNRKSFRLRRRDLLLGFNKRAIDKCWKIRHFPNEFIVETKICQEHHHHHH
Procedure: (§1) Each anti-ITM2A monoclonal antibody prepared in Example 2 was evaluated for its binding to GST-ITM2A-L and GST-ITM2A-S by ELISA. First, 100 μL each of GST-ITM2A-L and GST-ITM2A-S solutions having a concentration of 3 μg/mL was added to each well of a 96-well plate for ELISA (Nunc-Immuno Plate, Thermo Fisher Scientific K.K.) to coat the well with GST-ITM2A-L or GST-ITM2A-S. The coated well was blocked with a buffer containing 1% bovine serum albumin. Then, 100 μL each of solutions of the antibodies BE5-1, BE6-1, BE7-1-1, and BE13-1 diluted with the same buffer as above was added to each well. The plate was incubated at room temperature for 1 hour. The positive control used was an anti-His antibody (mouse IgG1, Santa Cruz Biotechnology, Inc.). The negative control used was mouse IgG1 (BD Pharmingen). Each antibody was diluted into 8 dilutions at a common ratio of 3.16 from a concentration of 1 μg/mL. After reaction with a secondary antibody (alkaline phosphatase-goat anti-mouse IgG (Gamma), Invitrogen Corp.), a substrate (phosphatase substrate, Sigma-Aldrich Corp.) was added to each well. Color developed by the reaction solution in each well was determined by the measurement of absorbance at 405 nm to 655 nm.

[3] = target: T3, ITM2A-furin (Met1 to Leu227 of ITM2A with an HA tag added downstream) expressed on CHO cells (ITM2A-furin_CHO) (human, UniProt O43736 1-227); experiment: flow cytometry on ITM2A-furin_CHO cells
T3 construct: C-terminally truncated ITM2A on DG44 CHO cells; also called ITM2A-furin-HA; ITM2A-furin-expressing CHO cells
T3 sequence (O43736 other isoform, or with tags, fused parts or gaps limits assumed): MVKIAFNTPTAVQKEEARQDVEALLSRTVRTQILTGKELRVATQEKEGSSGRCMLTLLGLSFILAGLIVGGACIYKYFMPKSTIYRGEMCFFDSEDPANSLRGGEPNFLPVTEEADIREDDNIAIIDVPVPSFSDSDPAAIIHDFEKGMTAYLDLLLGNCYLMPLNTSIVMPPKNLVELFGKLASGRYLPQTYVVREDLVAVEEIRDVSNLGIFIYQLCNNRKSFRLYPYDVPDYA
Procedure: (§2) Each anti-ITM2A monoclonal antibody prepared in Example 2 was assayed for its binding to ITM2A-furin by flow cytometry (FACS). The cells used were ITM2A-furin_CHO prepared in the paragraph (4-1), ITM2A_CHO prepared in the paragraph (2-4), and host cells CHO. These cells were separately suspended in PBS supplemented with 0.2% bovine serum albumin and 0.1% NaN3 (FACS buffer). To each cell suspension, the antibody BE5-1, BE6-1, BE7-1-1, or BE13-1, mouse IgG1, or an anti-HA antibody (clone HA-7, mouse IgG1, Sigma-Aldrich Corp.) was added, and the resulting cell suspension was incubated for 1 hour on ice. Each antibody was diluted into 6 dilutions at a common ratio of 5 from a concentration of 10 μg/mL. After washing of the cells with a FACS buffer, an FITC-labeled anti-mouse IgG antibody (Goat F(ab′)2 Fragment Anti-mouse IgG (Fcγ)-FITC, Beckman Coulter, Inc.) was added thereto as a secondary antibody. The resulting cell suspension was incubated for 1 hour on ice. The cells were washed with a FACS buffer, then suspended in a FACS buffer supplemented with 10 μg/mL propidium iodide (PI, Sigma-Aldrich Corp.), and subjected to assay using a flow cytometer. The assay data was analyzed using CELLQuest software (Becton, Dickinson and Company) to evaluate a PI-negative live cell population.

[4] = target: T4, human ITM2A protein (endogenous, on human cancer cell lines) (human, UniProt O43736 1-263); experiment: flow cytometry on human cancer cell lines, BE6-1 at 10 µg/mL, mouse IgG1 as negative control
T4 construct: also called NP-004858.1
T4 sequence (O43736 whole entry): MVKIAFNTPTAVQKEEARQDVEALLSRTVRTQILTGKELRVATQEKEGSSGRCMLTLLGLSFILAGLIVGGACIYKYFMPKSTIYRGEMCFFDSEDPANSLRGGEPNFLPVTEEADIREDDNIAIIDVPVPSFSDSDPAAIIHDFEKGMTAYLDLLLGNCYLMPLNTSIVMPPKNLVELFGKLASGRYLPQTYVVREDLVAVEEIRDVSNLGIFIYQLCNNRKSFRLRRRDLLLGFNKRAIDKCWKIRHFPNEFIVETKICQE
Procedure: as §2
The expression of ITM2A was assayed in human cancer cell lines by FACS. […]

[5] = target: T5, GST-ITM2A-S (GST fusion of ITM2A Tyr75-Lys182, C-terminally His-tagged) (human); experiment: ELISA, coated GST-ITM2A-S
T5 construct: Expressed in E. coli, solubilized and purified in 8 M urea buffer, coated on the ELISA plate
T5 sequence (chain, as listed by the source limits assumed): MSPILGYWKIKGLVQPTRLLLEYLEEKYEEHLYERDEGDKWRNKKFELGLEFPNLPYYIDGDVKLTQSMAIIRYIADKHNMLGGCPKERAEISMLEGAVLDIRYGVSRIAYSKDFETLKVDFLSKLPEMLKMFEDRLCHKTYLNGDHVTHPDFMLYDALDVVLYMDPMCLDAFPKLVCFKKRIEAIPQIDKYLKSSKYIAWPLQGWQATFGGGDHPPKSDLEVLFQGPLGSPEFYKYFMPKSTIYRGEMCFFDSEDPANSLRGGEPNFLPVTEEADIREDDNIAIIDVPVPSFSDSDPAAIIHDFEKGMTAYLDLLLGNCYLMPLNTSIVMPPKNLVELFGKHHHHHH
Procedure: as §1

[6] = target: T6, C-terminally HA-tagged ITM2A expressed on CHO cells (ITM2A_CHO) (human, UniProt O43736 1-263); experiment: flow cytometry on ITM2A_CHO cells
T6 construct: Type II membrane protein on DG44 CHO cells; also called ITM2A-HA; ITM2A-expressing CHO cells
T6 sequence (O43736 other isoform, or with tags, fused parts or gaps): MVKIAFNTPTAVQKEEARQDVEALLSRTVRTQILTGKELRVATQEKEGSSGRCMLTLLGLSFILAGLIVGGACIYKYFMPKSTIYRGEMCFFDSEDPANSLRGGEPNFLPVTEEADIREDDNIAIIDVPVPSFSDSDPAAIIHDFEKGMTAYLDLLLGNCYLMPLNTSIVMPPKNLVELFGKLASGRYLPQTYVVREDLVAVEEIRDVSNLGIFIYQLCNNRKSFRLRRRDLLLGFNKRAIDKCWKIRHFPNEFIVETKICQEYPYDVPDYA
Procedure: as §2

[7] = target: T6, C-terminally HA-tagged ITM2A expressed …; experiment: flow cytometry screening of hybridoma supernatants on ITM2A_CHO against parent CHO cells

T1 sequence (Q61500 other isoform, or with tags, fused parts or gaps): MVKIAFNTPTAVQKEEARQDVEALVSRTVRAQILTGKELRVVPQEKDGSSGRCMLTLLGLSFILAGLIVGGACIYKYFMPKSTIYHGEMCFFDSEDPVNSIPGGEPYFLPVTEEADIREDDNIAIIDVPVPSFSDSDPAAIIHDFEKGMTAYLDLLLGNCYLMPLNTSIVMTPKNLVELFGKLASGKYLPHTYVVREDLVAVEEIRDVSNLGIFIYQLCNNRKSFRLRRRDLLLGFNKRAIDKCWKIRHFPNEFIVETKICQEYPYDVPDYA

| Binder | binding result [1] | binding result [2] | binding result [3] | binding result [4] | binding result [5] | binding result [6] | binding result [7] |
| --- | --- | --- | --- | --- | --- | --- | --- |
| anti-ITM2A monoclonal antibody BE6-1 (antibody, mouse IgG1, V domains shown) VH: EVQLQQSGPELVKPGASVKISCKTSGYTFTEYTMHWVKQSHGKSLEWIGGINPNNGDTSYNQKFKGKATLTVDKSSITAYMELRSLTSEDSAVYYCARGPFAYWGQGTLVTVST VL: DVVMTQTPLSLPVSLGDQASISCRSSQSLVHSNGNTYFHWYLQKPGQSPKFLIYKVSNRFFGVPDRFSGSGSGTDFTLKISRVEAEDLGVYFCSQTTHFPFTFGSGTKLEIK | no binding | binds | binds | binds | binds | binds |  |
| anti-ITM2A monoclonal antibody BE13-1 (antibody, mouse IgG1, V domains shown) VH: EVQLQQSGPELVKPGASVRMSCKASGYTFTDYYMKWVKQSHGKSLEWIGDINPNNGGLSYNQKFKGKATLTVDKSSSTAYMQLASLTSEDSAVYYCAIWSGAYWGQGTLVTVSA VL: not shown | binds | binds |  |  |  | binds |  |
| anti-ITM2A monoclonal antibody BE5-1 (antibody, mouse IgG1, V domains shown) VH: QVQLVETGGGLVRPGNSLKLSCVTSGFTFSDYRMHWLRQSPGKRLEWIAVITGKSDNYGASYAESVKGRFTISRDDSKSSVYLQMNRLREEDTATYYCSRRDYWGQGTSVTVSS VL: DIVMTQAAPSVPVTPGESVSISCRSSKSLLHSNGNTYLYWFLQRPGQSPQLLIYRMSNLAPGVPDRFSGSGSGTAFTLRISRVEAEDVGVYYCMQHLEYPFTFGAGTKLELK | binds | binds | binds |  | binds |  | binds |
